# Tested on: Escherichia coli TOP10
# Assay: shrunken log2 fold change of peptide-encoding DNA abundance (4.5 h post-induction vs induction); higher = less antimicrobial activity (less host growth inhibition)
# Conditions: time post-induction: 4.5 h; library: site-saturation at positions 5, 18, 19, 20
# 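Note: peptides expressed intracellularly from a pBAD plasmid library in pooled LB shake-flask culture, induced with 0.3% L-arabinose, DNA abundance read by NGS, three biological replicates, DESeq2 with apeglm shrinkage.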
row,Sequence,shrunken log2 fold change
1,RRIRCRPPRLPRPRPRPWYSPRP,-0.361
2,RRIRIRPPRLPRPRPRPAATPRP,0.0455
3,RRIRERPPRLPRPRPRPELNPRP,-0.119
4,RRIRQRPPRLPRPRPRPKAPPRP,0.653
5,RRIRTRPPRLPRPRPRPKIFPRP,-0.219
6,RRIRVRPPRLPRPRPRPSRYPRP,-0.0975
7,RRIRMRPPRLPRPRPRPWMYPRP,-0.0417
8,RRIRQRPPRLPRPRPRPCDFPRP,0.0344
9,RRIRFRPPRLPRPRPRPEMKPRP,0.0843
10,RRIRVRPPRLPRPRPRPQYWPRP,-0.265
11,RRIRIRPPRLPRPRPRPYCNPRP,-0.154
12,RRIRIRPPRLPRPRPRPVVEPRP,-0.0638
13,RRIRARPPRLPRPRPRPNVKPRP,-0.167
14,RRIRTRPPRLPRPRPRPIINPRP,-0.0706
15,RRIRLRPPRLPRPRPRPSPKPRP,0.0205
16,RRIRWRPPRLPRPRPRPYWTPRP,-0.175
17,RRIRTRPPRLPRPRPRPEKLPRP,-0.0188
18,RRIRPRPPRLPRPRPRPTRHPRP,0.43
19,RRIRHRPPRLPRPRPRPADGPRP,-0.279
20,RRIRDRPPRLPRPRPRPCCMPRP,0.125
21,RRIRYRPPRLPRPRPRPQLTPRP,-0.0894
22,RRIRERPPRLPRPRPRPPWLPRP,0.488
23,RRIRARPPRLPRPRPRPYWPPRP,-0.00546
24,RRIRTRPPRLPRPRPRPPDGPRP,-0.0813
25,RRIRLRPPRLPRPRPRPQKAPRP,0.000116

row,Sequence,shrunken log2 fold change
1,RRIRHRPPRLPRPRPRPRYSPRP,-0.234
2,RRIRSRPPRLPRPRPRPQPQPRP,0.47
3,RRIRVRPPRLPRPRPRPYERPRP,0.0458
4,RRIRSRPPRLPRPRPRPSQVPRP,-0.323
5,RRIRPRPPRLPRPRPRPEPYPRP,-0.309
6,RRIRYRPPRLPRPRPRPQMKPRP,-1.17
7,RRIRRRPPRLPRPRPRPLITPRP,-0.0767
8,RRIRMRPPRLPRPRPRPPSWPRP,0.245
9,RRIRQRPPRLPRPRPRPMSTPRP,-0.0212
10,RRIRRRPPRLPRPRPRPKPDPRP,0.493
11,RRIRNRPPRLPRPRPRPRAAPRP,0.601
12,RRIRRRPPRLPRPRPRPSKLPRP,-0.0224
13,RRIRDRPPRLPRPRPRPKGTPRP,-0.0298
14,RRIRARPPRLPRPRPRPFWGPRP,0.0148
15,RRIRWRPPRLPRPRPRPCYHPRP,-0.123
16,RRIRLRPPRLPRPRPRPRVCPRP,0.0558
17,RRIRRRPPRLPRPRPRPWEFPRP,0.00288
18,RRIRERPPRLPRPRPRPPRDPRP,0.226
19,RRIRKRPPRLPRPRPRPDREPRP,0.186
20,RRIRERPPRLPRPRPRPNWSPRP,-0.3
21,RRIRVRPPRLPRPRPRPRWPPRP,0.534
22,RRIRDRPPRLPRPRPRPYAAPRP,-0.2
23,RRIRRRPPRLPRPRPRPQCFPRP,0.212
24,RRIRLRPPRLPRPRPRPVELPRP,0.0718
25,RRIRSRPPRLPRPRPRPWCGPRP,0.0715

row,Sequence,shrunken log2 fold change
1,RRIRFRPPRLPRPRPRPQWPPRP,0.192
2,RRIRCRPPRLPRPRPRPTTTPRP,-0.0127
3,RRIRCRPPRLPRPRPRPTGGPRP,0.561
4,RRIRWRPPRLPRPRPRPMQIPRP,0.0922
5,RRIRKRPPRLPRPRPRPNDFPRP,-0.0772
6,RRIRMRPPRLPRPRPRPDQWPRP,0.312
7,RRIRSRPPRLPRPRPRPVKNPRP,0.291
8,RRIRLRPPRLPRPRPRPLVLPRP,-0.355
9,RRIRIRPPRLPRPRPRPSIMPRP,-0.469
10,RRIRMRPPRLPRPRPRPQCPPRP,-0.181
11,RRIRYRPPRLPRPRPRPVHTPRP,-0.562
12,RRIRTRPPRLPRPRPRPIIDPRP,-0.000898
13,RRIRYRPPRLPRPRPRPLYPPRP,-0.929
14,RRIRARPPRLPRPRPRPDFFPRP,0.307
15,RRIRVRPPRLPRPRPRPDMVPRP,-0.0411
16,RRIRGRPPRLPRPRPRPYSLPRP,-0.158
17,RRIRNRPPRLPRPRPRPPLNPRP,0.0798
18,RRIRCRPPRLPRPRPRPMWIPRP,0.085
19,RRIRIRPPRLPRPRPRPYCRPRP,0.182
20,RRIRLRPPRLPRPRPRPQPFPRP,-1.07
21,RRIRIRPPRLPRPRPRPYEQPRP,-0.868
22,RRIRGRPPRLPRPRPRPCSVPRP,0.394
23,RRIRDRPPRLPRPRPRPRAHPRP,0.38
24,RRIRARPPRLPRPRPRPQRHPRP,0.212
25,RRIRMRPPRLPRPRPRPVLSPRP,0.0984

row,Sequence,shrunken log2 fold change
1,RRIRKRPPRLPRPRPRPMAIPRP,0.116
2,RRIRDRPPRLPRPRPRPFAKPRP,-0.0729
3,RRIRSRPPRLPRPRPRPSPRPRP,0.217
4,RRIRRRPPRLPRPRPRPTNWPRP,0.37
5,RRIRERPPRLPRPRPRPEGAPRP,0.592
6,RRIRIRPPRLPRPRPRPGAVPRP,0.28
7,RRIRNRPPRLPRPRPRPWFWPRP,0.422
8,RRIRFRPPRLPRPRPRPMLKPRP,-0.527
9,RRIRKRPPRLPRPRPRPLCMPRP,0.081
10,RRIRARPPRLPRPRPRPYWMPRP,-0.275
11,RRIRTRPPRLPRPRPRPLSRPRP,-0.45
12,RRIRTRPPRLPRPRPRPARHPRP,0.189
13,RRIRYRPPRLPRPRPRPMYAPRP,-0.0214
14,RRIRARPPRLPRPRPRPAYKPRP,-0.0413
15,RRIRQRPPRLPRPRPRPAHTPRP,0.379
16,RRIRARPPRLPRPRPRPSLCPRP,0.276
17,RRIRCRPPRLPRPRPRPVAWPRP,0.163
18,RRIRTRPPRLPRPRPRPWYTPRP,-0.555
19,RRIRMRPPRLPRPRPRPLYRPRP,-0.0998
20,RRIRHRPPRLPRPRPRPRTTPRP,0.136
21,RRIRSRPPRLPRPRPRPFCIPRP,-0.316
22,RRIRDRPPRLPRPRPRPKLSPRP,0.0504
23,RRIRQRPPRLPRPRPRPFGVPRP,0.0831
24,RRIRCRPPRLPRPRPRPHPQPRP,0.266
25,RRIRTRPPRLPRPRPRPRAHPRP,-0.186

row,Sequence,shrunken log2 fold change
1,RRIRIRPPRLPRPRPRPHHGPRP,-0.0784
2,RRIRHRPPRLPRPRPRPTKSPRP,-0.0287
3,RRIRARPPRLPRPRPRPAKVPRP,0.167
4,RRIRYRPPRLPRPRPRPHEMPRP,2.66
5,RRIRDRPPRLPRPRPRPPPAPRP,0.924
6,RRIRKRPPRLPRPRPRPVVMPRP,3.16
7,RRIRGRPPRLPRPRPRPLHEPRP,0.74
8,RRIRGRPPRLPRPRPRPLAYPRP,0.721
9,RRIRNRPPRLPRPRPRPHMIPRP,-0.168
10,RRIRRRPPRLPRPRPRPEKIPRP,0.164
11,RRIRARPPRLPRPRPRPHLWPRP,0.645
12,RRIRARPPRLPRPRPRPCDKPRP,-0.152
13,RRIRDRPPRLPRPRPRPGMHPRP,0.0286
14,RRIRNRPPRLPRPRPRPDAHPRP,0.0677
15,RRIRNRPPRLPRPRPRPSLEPRP,-0.208
16,RRIRARPPRLPRPRPRPRNKPRP,0.271
17,RRIRKRPPRLPRPRPRPVGCPRP,0.266
18,RRIRMRPPRLPRPRPRPPFYPRP,-0.182
19,RRIRHRPPRLPRPRPRPGWVPRP,0.0965
20,RRIRFRPPRLPRPRPRPIMWPRP,0.0691
21,RRIRPRPPRLPRPRPRPNNRPRP,-0.349
22,RRIRPRPPRLPRPRPRPHSFPRP,-0.0599
23,RRIRYRPPRLPRPRPRPEREPRP,-0.0221
24,RRIRRRPPRLPRPRPRPDMPPRP,-0.0169
25,RRIRMRPPRLPRPRPRPRGWPRP,1.34

row,Sequence,shrunken log2 fold change
1,RRIRTRPPRLPRPRPRPARSPRP,0.0134
2,RRIRKRPPRLPRPRPRPERNPRP,0.683
3,RRIRSRPPRLPRPRPRPSRTPRP,0.822
4,RRIRTRPPRLPRPRPRPEGGPRP,0.203
5,RRIRFRPPRLPRPRPRPLWFPRP,0.00985
6,RRIRMRPPRLPRPRPRPACVPRP,0.428
7,RRIRSRPPRLPRPRPRPPVLPRP,0.0563
8,RRIRVRPPRLPRPRPRPFCHPRP,-0.264
9,RRIRHRPPRLPRPRPRPQMTPRP,-0.104
10,RRIRYRPPRLPRPRPRPQFSPRP,0.0125
11,RRIRRRPPRLPRPRPRPQEWPRP,-0.0466
12,RRIRGRPPRLPRPRPRPPGIPRP,0.745
13,RRIRLRPPRLPRPRPRPQDAPRP,0.0335
14,RRIRGRPPRLPRPRPRPHTPPRP,0.339
15,RRIRPRPPRLPRPRPRPYEQPRP,-0.116
16,RRIRFRPPRLPRPRPRPKCEPRP,0.051
17,RRIRARPPRLPRPRPRPSVAPRP,0.485
18,RRIRWRPPRLPRPRPRPAVRPRP,-0.0873
19,RRIRFRPPRLPRPRPRPQPHPRP,0.166
20,RRIRIRPPRLPRPRPRPFATPRP,-0.0964
21,RRIRHRPPRLPRPRPRPQMLPRP,-0.0829
22,RRIRMRPPRLPRPRPRPDYVPRP,-0.183
23,RRIRCRPPRLPRPRPRPTRVPRP,0.547
24,RRIRFRPPRLPRPRPRPIFCPRP,-0.155
25,RRIRKRPPRLPRPRPRPGMTPRP,0.129

# — the supplement of paper PMC9112550, “Optimization of the antimicrobial peptide Bac7 by deep mutational scanning” (BMC Biology, 2022)
